Patent publication US20190216897A1

Molecular target: IL-18 (human) (UniProt Q14116)
Assay: cell-based or functional assay

- decrease in proliferation of CD8+ T cells primed with CD5+ DCs (CFSE dilution): 40%
B1: neutralizing anti-IL-18 mAb (125-2H; MLB) (antibody, from another filing, V domains shown)
VH: EIQLQQSGPELVKPGASVKVSCKASGYSFTDYFIYWVKQSHGKSLEWIGDIDPYNGDTSYNQKFRDKATLTVDQSSTTAFMHLNSLTSEDSAVYFCARGLRFWGQGTLVTVSA
VL: DIQMTQSPSSLSASLGERVSLTCRASQDIGSKLYWLQQEPDGTFKRLIYATSSLDSGVPKRFSGSRSGSDYSLTISSLESEDFVDYYCLQYASSPYTFGGGTKLAIKR
